Source: IntAct's records for PubMed 16467851

B1: 1-phosphatidylinositol 4,5-bisphosphate phosphodiesterase gamma-1 (Bos taurus (Bovine)), P08487 (parent)
chain: MAGAASPCANGCGPSAPSDAEVVHLCRSLEVGTVMTLFYSKKSQRPERKTFQVKLETRQITWSRGADKIEGAIDIREIKEIRPGKTSRDFDRYQEDPAFRPDQSHCFVILYGMEFRLKTLSLQATSEDEVNMWIRGLTWLMEDTLQAATPLQIERWLRKQFYSVDRNREDRISAKDLKNMLSQVNYRVPNMRFLRERLTDLEQRTSDITYGQFAQLYRSLMYSAQKTMDLPFLEASALRAGERPELCRVSLPEFQQFLLEYQGELWAVDRLQVQEFMLSFLRDPLREIEEPYFFLDEFVTFLFSKENSIWNSQLDEVCPDTMNNPLSHYWISSSHNTYLTGDQFSSESSLEAYARCLRMGCRCIELDCWDGPDGMPVIYHGHTLTTKIKFSDVLHTIKEHAFVASEYPVILSIEDHCSIAQQRNMAQYFKKVLGDTLLTKPVDIAADGLPSPNQLKRKILIKHKKLAEGSAYEEVPTSVMYSENDISNSIKNGILYLEDPVNHEWYPHYFVLTSSKIYYSEETSSDQGNEDEEEPKEASGSTELHSNEKWFHGKLGAGRDGRHIAERLLTEYCIETGAPDGSFLVRESETFVGDYTLSFWRNGKVQHCRIHSRQDAGTPKFFLTDNLVFDSLYDLITHYQQVPLRCNEFEMRLSEPVPQTNAHESKEWYHASLTRAQAEHMLMRVPRDGAFLVRKRNEPNSYAISFRAEGKIKHCRVQQEGQTVMLGNSEFDSLVDLISYYEKHPLYRKMKLRYPINEEALEKIGTAEPDYGALYEGRNPGFYVEANPMPTFKCAVKALFDYKAQREDELTFTKSAIIQNVEKQEGGWWRGDYGGKKQLWFPSNYVEEMVSPAALEPEREHLDENSPLGDLLRGVLDVPACQIAVRPEGKNNRLFVFSISMASVAHWSLDVAADSQEELQDWVKKIREVAQTADARLTEGKMMERRKKIALELSELVVYCRPVPFDEEKIGTERACYRDMSSFPETKAEKYVNKAKGKKFLQYNRLQLSRIYPKGQRLDSSNYDPLPMWICGSQLVALNFQTPDKPMQMNQALFLAGGHCGYVLQPSVMRDEAFDPFDKSSLRGLEPCAICIEVLGARHLPKNGRGIVCPFVEIEVAGAEYDSIKQKTEFVVDNGLNPVWPAKPFHFQISNPEFAFLRFVVYEEDMFSDQNFLAQATFPVKGLKTGYRAVPLKNNYSEGLELASLLVKIDVFPAKQENGDLSPFGGASLRERSCDASGPLFHGRAREGSFEARYQQPFEDFRISQEHLADHFDGRDRRTPRRTRVNGDNRL
B2: 1-phosphatidylinositol 4,5-bisphosphate phosphodiesterase gamma-1 (Bos taurus (Bovine)), P08487 (parent)
chain: B1 chain
partner: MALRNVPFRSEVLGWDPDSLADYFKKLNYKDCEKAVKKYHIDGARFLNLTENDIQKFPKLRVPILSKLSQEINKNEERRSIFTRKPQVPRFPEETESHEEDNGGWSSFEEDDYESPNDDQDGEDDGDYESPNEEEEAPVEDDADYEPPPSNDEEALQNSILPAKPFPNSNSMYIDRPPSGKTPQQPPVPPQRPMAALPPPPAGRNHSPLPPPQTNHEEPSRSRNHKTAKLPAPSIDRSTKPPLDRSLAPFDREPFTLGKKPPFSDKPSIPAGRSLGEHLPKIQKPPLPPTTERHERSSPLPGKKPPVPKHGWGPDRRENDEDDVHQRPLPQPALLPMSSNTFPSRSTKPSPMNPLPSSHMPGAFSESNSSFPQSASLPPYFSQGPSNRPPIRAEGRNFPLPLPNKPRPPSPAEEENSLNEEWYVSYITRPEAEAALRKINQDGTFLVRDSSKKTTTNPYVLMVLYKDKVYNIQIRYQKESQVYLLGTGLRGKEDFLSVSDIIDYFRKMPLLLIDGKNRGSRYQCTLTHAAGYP
B3: 1-phosphatidylinositol 4,5-bisphosphate phosphodiesterase gamma-1 (Bos taurus (Bovine)), P08487 (parent)
chain: B1 chain
partner: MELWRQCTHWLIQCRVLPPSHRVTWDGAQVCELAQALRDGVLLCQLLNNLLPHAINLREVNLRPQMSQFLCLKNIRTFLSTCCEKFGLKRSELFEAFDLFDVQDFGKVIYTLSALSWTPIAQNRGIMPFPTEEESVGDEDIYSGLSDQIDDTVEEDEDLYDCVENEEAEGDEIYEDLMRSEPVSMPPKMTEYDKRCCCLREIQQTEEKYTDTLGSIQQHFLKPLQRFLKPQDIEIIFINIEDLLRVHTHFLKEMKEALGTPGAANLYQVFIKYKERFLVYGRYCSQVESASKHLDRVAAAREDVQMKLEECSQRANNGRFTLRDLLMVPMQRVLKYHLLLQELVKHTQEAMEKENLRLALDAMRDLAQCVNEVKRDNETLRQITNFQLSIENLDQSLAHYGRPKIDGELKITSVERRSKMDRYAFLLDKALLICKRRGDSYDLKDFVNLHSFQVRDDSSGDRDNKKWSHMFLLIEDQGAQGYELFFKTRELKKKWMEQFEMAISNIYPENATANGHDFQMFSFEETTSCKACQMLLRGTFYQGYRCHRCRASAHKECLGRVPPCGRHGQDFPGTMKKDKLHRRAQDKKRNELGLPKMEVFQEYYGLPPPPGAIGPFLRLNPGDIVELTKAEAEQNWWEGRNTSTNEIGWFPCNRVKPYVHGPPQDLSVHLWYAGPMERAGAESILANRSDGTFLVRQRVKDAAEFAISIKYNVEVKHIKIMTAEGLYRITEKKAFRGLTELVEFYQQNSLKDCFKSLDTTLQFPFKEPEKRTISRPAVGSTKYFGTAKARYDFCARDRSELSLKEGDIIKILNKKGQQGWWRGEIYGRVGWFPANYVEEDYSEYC
B4: 1-phosphatidylinositol 4,5-bisphosphate phosphodiesterase gamma-1 (Bos taurus (Bovine)), P08487 (parent)
chain: B1 chain
partner: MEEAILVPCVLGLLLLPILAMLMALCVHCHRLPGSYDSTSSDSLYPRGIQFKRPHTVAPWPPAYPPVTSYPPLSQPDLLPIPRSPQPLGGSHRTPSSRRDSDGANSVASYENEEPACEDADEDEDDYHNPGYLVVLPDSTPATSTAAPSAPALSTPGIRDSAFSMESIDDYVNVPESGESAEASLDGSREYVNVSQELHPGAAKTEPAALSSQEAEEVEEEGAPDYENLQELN

Variants of: B1
Conditions: with cbl_human CBL

| effect of a mutation on the interaction | Variant |
| --- | --- |
| disrupting interaction | P842K |

Variants of: B2
Conditions: with lcp2_human LCP2, Q13094

| effect of a mutation on the interaction | Variant |
| --- | --- |
| disrupting interaction | R586K |

Variants of: B2
Conditions: with lcp2_human LCP2, Q13094
Remark: another data set of the same source

| effect of a mutation on the interaction | Variant |
| --- | --- |
| disrupting interaction | R694K |
| disrupting interaction | R696K |

Variants of: B2
Conditions: with lcp2_human LCP2, Q13094
Remark: another data set of the same source

| effect of a mutation on the interaction | Variant |
| --- | --- |
| disrupting interaction | P842K |

Variants of: B3
Conditions: with vav_human VAV1, P15498

| effect of a mutation on the interaction | Variant |
| --- | --- |
| disrupting interaction | R694K |
| disrupting interaction | R696K |

Variants of: B3
Conditions: with vav_human VAV1, P15498
Remark: another data set of the same source

| effect of a mutation on the interaction | Variant |
| --- | --- |
| disrupting interaction | P842K |

Variants of: B3
Conditions: with vav_human VAV1, P15498
Remark: another data set of the same source

| effect of a mutation on the interaction | Variant |
| --- | --- |
| disrupting interaction | R586K |

Variants of: B4
Conditions: with LAT

| effect of a mutation on the interaction | Variant |
| --- | --- |
| disrupting interaction | R586K |

Variants of: B4
Conditions: with LAT
Remark: another data set of the same source

| effect of a mutation on the interaction | Variant |
| --- | --- |
| disrupting interaction | R694K |
| disrupting interaction | P842K |
| disrupting interaction | R696K |
